Test results from publication PMC9977947, “Targeting ATAD3A-PINK1-mitophagy axis overcomes chemoimmunotherapy resistance by redirecting PD-L1 to mitochondria” (Cell Research, 2023).
No end group written: not given here.

Biological target: T1, Flag-labeled truncated PINK1 (amino acids 321-509) (UniProt Q9BXM7 321-509)
T1 construct: PINK1, amino acids 321-509; also called C-lobe of kinase domain of PINK1; kinase domain C; source: HEK293T, purified using 3x Flag peptide
Test: pull-down; purified Flag-PINK1 (full length or truncated) incubated with biotin-labeled PD-L1 ICD peptide in 25 mM Tris-HCl pH 7.4, 150 mM NaCl, 1 mM EDTA, 0.05% NP-40, 10% glycerol for 12 h at 4 °C; streptavidin sepharose beads or anti-Flag M2 affinity gel 1.5 h; five washes; immunoblot
Settings: both partners purified

T1 sequence (Q9BXM7 321-509): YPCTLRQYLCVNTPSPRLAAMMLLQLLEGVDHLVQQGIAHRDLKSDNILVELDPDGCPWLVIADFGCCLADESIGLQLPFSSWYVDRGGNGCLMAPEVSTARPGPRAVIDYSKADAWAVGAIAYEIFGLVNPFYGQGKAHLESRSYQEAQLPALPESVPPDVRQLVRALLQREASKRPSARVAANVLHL

B1: Biotin-labeled PD-L1 ICD peptide (amino acids 262-290) (peptide, UniProt Q9NZQ7 262-290, looked up)
peptide: RKGRMMDVKKCGIQDTNSKKQSDTHLEET
modifications: also: biotin-labeled, position not given here
notes: PD-L1 (CD274), intracellular domain, amino acids 262-290; also called intracellular domain of PD-L1; intracellular region of PD-L1; source: synthetic peptide (GenScript)
binding result: binds
